Assay results published in publication doi:10.64898/2025.12.12.693935, “Tetraspanin CD82 reduces the formation of CADM1 oligomers” (bioRxiv, 2025).

Key:
[1] = biological target: the molecule itself; assay: SEC; F-SEC on tryptophan fluorescence, Superose 6 increase 10/300, purified protein injected at 0.15 to 80 µM; 150 mM NaCl, 25 mM HEPES pH 7.5, 0.025% DDM
[2] = biological target: the molecule itself; assay: SEC; F-SEC on the eGFP signal, Superdex 200 increase 10/300 GL, strep-tactin-purified samples of individually expressed or co-expressed proteins; 150 mM NaCl, 25 mM HEPES pH 7.5, 0.025% DDM
[3] = biological target: the molecule itself; assay: SEC-MALS; SEC-MALLS, Superdex 200 increase 10/300 GL, 200 mM NaCl, 25 mM HEPES 7.5, 0.4 mL/min; CADM1(ECD)-His6 at 160, 80, 40 and 20 µM; monomer to dimer

B1: CADM1-StrepII3 (natural protein, human, UniProt Q9BY67 45-442, looked up)
chain: QNLFTKDVTVIEGEVATISCQVNKSDDSVIQLLNPNRQTIYFRDFRPLKDSRFQLLNFSSSELKVSLTNVSISDEGRYFCQLYTDPPQESYTTITVLVPPRNLMIDIQKDTAVEGEEIEVNCTAMASKPATTIRWFKGNTELKGKSEVEEWSDMYTVTSQLMLKVHKEDDGVPVICQVEHPAVTGNLQTQRYLEVQYKPQVHIQMTYPLQGLTREGDALELTCEAIGKPQPVMVTWVRVDDEMPQHAVLSGPNLFINNLNKTDNGTYRCEASNIVGKAHSDYMLYVYDPPTTIPPPTTTTTTTTTTTTTILTIITDSRAGEEGSIRAVDHAVIGGVVAVVVFAMLCLLIILGRYFARHKGTYFTHEAKGADDAADADTAIINAEGGQNNSEEKKEYFI
notes: CADM1 excluding the signal peptide, human, UniProtKB Q9BY67.2; called full-length in the results; expressed behind the vector's N-terminal signal peptide; also called full-length CADM1-StrepII3; source: HEK293-E+ cells, transiently transfected, solubilized in DDM, purified (strep-tactin, SEC); not shown: StrepII3, C-terminal, kept
binding result [1]: binds

B2: CADM1-eGFP-StrepII3 (natural protein, human, UniProt Q9BY67 45-442, looked up)
chain: QNLFTKDVTVIEGEVATISCQVNKSDDSVIQLLNPNRQTIYFRDFRPLKDSRFQLLNFSSSELKVSLTNVSISDEGRYFCQLYTDPPQESYTTITVLVPPRNLMIDIQKDTAVEGEEIEVNCTAMASKPATTIRWFKGNTELKGKSEVEEWSDMYTVTSQLMLKVHKEDDGVPVICQVEHPAVTGNLQTQRYLEVQYKPQVHIQMTYPLQGLTREGDALELTCEAIGKPQPVMVTWVRVDDEMPQHAVLSGPNLFINNLNKTDNGTYRCEASNIVGKAHSDYMLYVYDPPTTIPPPTTTTTTTTTTTTTILTIITDSRAGEEGSIRAVDHAVIGGVVAVVVFAMLCLLIILGRYFARHKGTYFTHEAKGADDAADADTAIINAEGGQNNSEEKKEYFI
notes: CADM1 excluding the signal peptide, human, UniProtKB Q9BY67.2; expressed behind the vector's N-terminal signal peptide; source: HEK293-E+ cells, transiently transfected, solubilized in DDM, purified (strep-tactin); not shown: eGFP, C-terminal, kept; StrepII3, C-terminal, kept
binding result [2]: binds

B3: CADM1(ECD)-His6 (domain or fragment, human, UniProt Q9BY67 45-374, looked up)
chain: QNLFTKDVTVIEGEVATISCQVNKSDDSVIQLLNPNRQTIYFRDFRPLKDSRFQLLNFSSSELKVSLTNVSISDEGRYFCQLYTDPPQESYTTITVLVPPRNLMIDIQKDTAVEGEEIEVNCTAMASKPATTIRWFKGNTELKGKSEVEEWSDMYTVTSQLMLKVHKEDDGVPVICQVEHPAVTGNLQTQRYLEVQYKPQVHIQMTYPLQGLTREGDALELTCEAIGKPQPVMVTWVRVDDEMPQHAVLSGPNLFINNLNKTDNGTYRCEASNIVGKAHSDYMLYVYDPPTTIPPPTTTTTTTTTTTTTILTIITDSRAGEEGSIRAVDH
notes: ectodomain of CADM1, human, UniProtKB Q9BY67.2, without the natural signal peptide; also called His-tagged CADM1 ectodomain; soluble CADM1(ECD)-His6; source: HEK293-E+ cells, secreted into the supernatant, purified (Ni Sepharose excel, SEC); not shown: His6, C-terminal, kept
stoichiometry N [3]: 2
